Test results from PMC12422955 (Nature, 2025).

B3: recombinant homomeric GluA4 receptor (C-terminal GFP and Strep tag) (receptor, UniProt P19493 21-902, looked up)
chain: GAFPSSVQIGGLFIRNTDQEYTAFRLAIFLHNTSPNASEAPFNLVPHVDNIETANSFAVTNAFCSQYSRGVFAIFGLYDKRSVHTLTSFCSALHISLITPSFPTEGESQFVLQLRPSLRGALLSLLDHYEWNCFVFLYDTDRGYSILQAIMEKAGQNGWHVSAICVENFNDVSYRQLLEELDRRQEKKFVIDCEIERLQNILEQIVSVGKHVKGYHYIIANLGFKDISLERFIHGGANVTGFQLVDFNTPMVTKLMDRWKKLDQREYPGSETPPKYTSALTYDGVLVMAETFRSLRRQKIDISRRGNAGDCLANPAAPWGQGIDMERTLKQVRIQGLTGNVQFDHYGRRVNYTMDVFELKSTGPRKVGYWNDMDKLVLIQDMPTLGNDTAAIENRTVVVTTIMESPYVMYKKNHEMFEGNDKYEGYCVDLASEIAKHIGIKYKIAIVPDGKYGARDADTKIWNGMVGELVYGKAEIAIAPLTITLVREEVIDFSKPFMSLGISIMIKKPQKSKPGVFSFLDPLAYEIWMCIVFAYIGVSVVLFLVSRFSPYEWHTEEPEDGKEGPSDQPPNEFGIFNSLWFSLGAFMQQGCDISPRSLSGRIVGGVWWFFTLIIISSYTANLAAFLTVERMVSPIESAEDLAKQTEIAYGTLDSGSTKEFFRRSKIAVYEKMWTYMRSAEPSVFTRTTAEGVARVRKSKGKFAFLLESTMNEYTEQRKPCDTMKVGGNLDSKGYGVATPKGSSLGNAVNLAVLKLNEQGLLDKLKNKWWYDKGECGSGGGDSKDKTSALSLSNVAGVFYILVGGLGLAMLVALIEFCYKSRAEAKRMKLTFSEATRNKARLSITGSVGENGRVLTPDCPKAVHTGTAIRQSSGLAVIASDLP
notes: GluA4; also called recombinant GluA4; rGluA4-GFP; source: tsA201 cells (BacMam), digitonin-solubilised, purified (Strep-Tactin, SEC); not shown: GFP, C-terminal, kept

Assays:
Details in all cases: both partners purified
[1] = target: B3; test: BLI; Octet RED384, 30 °C; Fc–dNOE1–mScarlet (20 μg/ml) captured on AMC biosensor; GluA4–GFP 0.78–50 nM; 20 mM Tris pH 8.0, 150 mM NaCl, 0.075% digitonin with 3 mM glutamate or 2 μM ZK and 10 μM (R,R)-2b; 1:1 binding model
[2] = target: dNOE1–mScarlet (dimeric NOE1 construct, residues 205-481 with five GCN4 residues) (rat, UniProt Q62609 205-481); test: SEC; FSEC of the dNOE1 construct alone, in the absence of a reducing agent
[3] = target: T1, recombinant full-length NOE1–mScarlet-His (rat, UniProt Q62609 25-485); test: SEC; FSEC, Superose 6 calibrated with mass markers; 5 nM full-length NOE1–mScarlet with 5–150 nM GluA4, or 1 nM with 1–100 nM CP-AMPARs; mScarlet fluorescence
T1 construct: signal peptide in the construct; full-length rat NOE1, residues 1-485; Tag joined by an SG linker or an SG–HRV 3C site–AAAA motif; source: tsA201 cells (BacMam), secreted, purified (Ni-NTA, SEC); not shown: mScarlet, C-terminal, kept
T1 sequence (Q62609 25-485): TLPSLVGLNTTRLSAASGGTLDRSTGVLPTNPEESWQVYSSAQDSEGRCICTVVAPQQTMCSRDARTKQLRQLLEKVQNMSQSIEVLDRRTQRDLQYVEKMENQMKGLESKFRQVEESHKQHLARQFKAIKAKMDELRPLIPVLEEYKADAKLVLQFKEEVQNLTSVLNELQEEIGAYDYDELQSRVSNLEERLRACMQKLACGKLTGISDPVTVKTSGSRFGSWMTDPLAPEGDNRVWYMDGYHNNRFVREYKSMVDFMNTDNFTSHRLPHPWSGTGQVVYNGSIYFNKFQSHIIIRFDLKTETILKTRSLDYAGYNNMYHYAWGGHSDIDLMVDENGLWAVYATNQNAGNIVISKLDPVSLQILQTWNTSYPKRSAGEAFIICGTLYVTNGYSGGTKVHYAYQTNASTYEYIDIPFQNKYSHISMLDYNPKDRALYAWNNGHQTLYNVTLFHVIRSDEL

B1: Fc–dNOE1–mScarlet (Fc fusion)
chain: LKQEIDELQSRVSNLEERLRACMQKLACGKLTGISDPVTVKTSGSRFGSWMTDPLAPEGDNRVWYMDGYHNNRFVREYKSMVDFMNTDNFTSHRLPHPWSGTGQVVYNGSIYFNKFQSHIIIRFDLKTETILKTRSLDYAGYNNMYHYAWGGHSDIDLMVDENGLWAVYATNQNAGNIVISKLDPVSLQILQTWNTSYPKRSAGEAFIICGTLYVTNGYSGGTKVHYAYQTNASTYEYIDIPFQNKYSHISMLDYNPKDRALYAWNNGHQTLYNVTLFHVIR
modifications: Disulfide-linked, glycosylated dimer. Mouse Fc carrier (before the coiled coil) and C-terminal mScarlet-His left out. The position of the five GCN4 residues relative to Fc is not given; they are …
- Kd [1]: ~9.4 nM

B2: dNOE1–mScarlet (dimeric NOE1 construct, residues 205-481 with five GCN4 residues) (domain or fragment)
chain: GLKQEIDELQSRVSNLEERLRACMQKLACGKLTGISDPVTVKTSGSRFGSWMTDPLAPEGDNRVWYMDGYHNNRFVREYKSMVDFMNTDNFTSHRLPHPWSGTGQVVYNGSIYFNKFQSHIIIRFDLKTETILKTRSLDYAGYNNMYHYAWGGHSDIDLMVDENGLWAVYATNQNAGNIVISKLDPVSLQILQTWNTSYPKRSAGEAFIICGTLYVTNGYSGGTKVHYAYQTNASTYEYIDIPFQNKYSHISMLDYNPKDRALYAWNNGHQTLYNVTLFHVIR
modifications: Disulfide-linked dimer (non-reducing), glycosylated. The cystatin SN signal peptide is assumed cleaved after ...AVALA by convention, leaving G plus GCN4 LKQEI. C-terminal GSG-3C-AAAA-mScarlet-His …
- stoichiometry N [2]: 2

Binder: B3
- stoichiometry N [3]: 2 receptors per NOE1 tetramer
